Laboratory results taken from patent publication US20240067758A1 (UCB, published 2024).

How the values were obtained:
Human IL22 [1] = biological target: T1, Human IL22 (human, UniProt Q9GZX6 34-179); assay: SPR Biacore T200; Fab captured on anti-rabbit F(ab')2, IL22 titrated 0.6-50 nM
T1 construct: IL22 of the Biacore and cell assays
T1 sequence: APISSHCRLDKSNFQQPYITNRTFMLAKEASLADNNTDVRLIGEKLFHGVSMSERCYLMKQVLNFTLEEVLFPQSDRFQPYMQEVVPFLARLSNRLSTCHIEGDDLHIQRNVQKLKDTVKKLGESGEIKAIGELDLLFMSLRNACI
Method: (§1) HBS-EP+ buffer (10 mM HEPES pH 7.4, 0.15 M NaCl, 3 mM EDTA, 0.05% Surfactant P20, GE Healthcare) was used as the running buffer with a flow rate of 10 μL/min.
(§2) The surface was generated by 2×10 μL injection of 50 mM HCl, interspersed by a 10 μL injection of 5 mM NaOH at flowrate of 10 μL/min. Background subtraction binding curves were analyzed using the Biacore T200 evaluation software following standard procedures. Kinetic parameters were determined from the fitting algorithm.

Cynomolgus IL22 = biological target: T2, Cynomolgus IL22 (cynomolgus, UniProt G7PHZ7 34-179); assay: as above
T2 construct: also called Cyno IL22; Cyno IL-22
T2 sequence: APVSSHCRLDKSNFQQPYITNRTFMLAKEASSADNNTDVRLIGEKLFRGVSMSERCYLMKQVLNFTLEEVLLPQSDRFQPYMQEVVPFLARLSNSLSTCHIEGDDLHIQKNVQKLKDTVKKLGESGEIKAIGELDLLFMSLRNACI
Method: as §1, §2

Mouse IL22 = biological target: T3, Mouse IL22 (mouse, UniProt Q9JJY9 34-179); assay: as above
T3 sequence (looked up): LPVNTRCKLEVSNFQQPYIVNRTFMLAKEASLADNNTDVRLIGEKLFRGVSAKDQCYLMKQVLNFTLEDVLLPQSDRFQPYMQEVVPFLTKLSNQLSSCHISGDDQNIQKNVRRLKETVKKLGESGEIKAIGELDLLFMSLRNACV
Method: as §1, §2

Human IL22 [2] = biological target: T1, Human IL22; assay: SPR (Biacore); Fab variant, human IL22
Human IL22 [3] = biological target: T1, Human IL22; assay: SPR Biacore 8K; Fab captured on anti-human F(ab')2, human IL22 titrated 617 pM-50 nM; single experiment
Method: The assay was run on Biacore 8K instrument (GE Healthcare) and BIA (Biomolecular Interaction Analysis) was performed using Biacore 8000 evaluation software Affinipure Goat anti-human IgG-F(ab′)2 fragment specific (Jackson ImmunoResearch) was immobilized on a CM5 Sensor Chip via amine coupling chemistry to a capture level of ˜5000 response units (RUs). HBS-EP+ buffer (10 mM HEPES pH 7.4, 0.15 M NaCl, 3 mM EDTA, 0.05% Surfactant P20, GE Healthcare) was used as the running buffer with a flow rate of 10 μL/min.
The surface was generated by 2×10 μL injections of 50 mM HCl, interspersed by a 5 μL injection of 5 mM NaOH at flowrate of 10 μL/min. Background subtraction binding curves were analyzed using the Insight evaluation software following standard procedures. Kinetic parameters were determined from the fitting algorithm.

Human IL22 [4] = biological target: T1, Human IL22; assay: SPR
Human IL22 [5] = biological target: T1, Human IL22; assay: SPR (Biacore); Fab variant, human IL22; remark: listed apart in the source

B1: Rabbit 11041 Fab (Fab, V domains shown)
VH: QSVEESGGRLVTPGTPLTLTCTVSGFSLSSYAMIWVRQAPGEGLEWIGIIDIDGSTYYASWAKGRFTISRTSTTVDLKITSPTTGDTATYFCARDRFVGVDIFDPWGPGTLVTVSS
VL: AVVLTQTASPVSAPVGGTVTIKCQASEDIYTNLAWYQQKPGQPPKLLIYWASTLASGVPSRFKGSGSGTEFTLTISDLECADAATYYCQACVYGNSADSRYTFGGGTEVVVK
notes: Rabbit Fab
Kd (Human IL22 [1]): 0.34 nM
koff (Human IL22 [1]): 0.00029 s⁻¹
kon (Human IL22 [1]): 870000 M⁻¹ s⁻¹
Kd (Cynomolgus IL22): 1.1 nM
koff (Cynomolgus IL22): 0.00028 s⁻¹
kon (Cynomolgus IL22): 260000 M⁻¹ s⁻¹
Kd (Mouse IL22): 3 nM
koff (Mouse IL22): 0.11 s⁻¹
kon (Mouse IL22): 3.7e+07 M⁻¹ s⁻¹

B2: 11041gL13gH14 Fab (Fab, V domains shown)
VH: EVQLVESGGGLVQPGGSLRLSCAVSGFSLSSYAMIWVRQAPGKGLEWIGIIDIEGSTYYASWAKGRFTISRDNSKNTVYLQMNSLRAEDTAVYYCARDRFVGVDIFDPWGQGTLVTVSS
VL: AVQLTQSPSSLSASVGDRVTITCQASEDIYTNLAWYQQKPGKAPKLLIYWASTLASGVPSRFSGSGSGTDFTLTISSLQPEDFATYYCQASVYGNAADSRYTFGGGTKVEIKR
notes: also called 11041gL6 C91S S96A gH5 D54E
Kd (Human IL22 [2]): 0.0125 nM
Kd (Human IL22 [3]): 0.0125 nM
kon (Human IL22 [3]): 1.01e+06 M⁻¹ s⁻¹

B3: 11041gL1 C91S gH1 (Fab, V domains shown)
VH: EVQLVESGGGLVQPGGSLRLSCAVSGFSLSSYAMIWVRQAPGKGLEWIGIIDIDGSTYYASWAKGRFTISRDSSKNTVYLQMNSLRAEDTAVYYCARDRFVGVDIFDPWGQGTLVTVSS
VL: AVVLTQSPSSLSASVGDRVTITCQASEDIYTNLAWYQQKPGKAPKLLIYWASTLASGVPSRFSGSGSGTDFTLTISSLQPEDFATYYCQASVYGNSADSRYTFGGGTKVEIK
notes: V-regions only; also called 11041gL2gH1
fold increase in binding affinity against 11041gL1gH1 (Human IL22 [4]): 50 fold
Kd (Human IL22 [2]): 0.0124 nM

B4: 11041gL1 C91V gH1 (Fab, V domains shown)
VH: EVQLVESGGGLVQPGGSLRLSCAVSGFSLSSYAMIWVRQAPGKGLEWIGIIDIDGSTYYASWAKGRFTISRDSSKNTVYLQMNSLRAEDTAVYYCARDRFVGVDIFDPWGQGTLVTVSS
VL: AVVLTQSPSSLSASVGDRVTITCQASEDIYTNLAWYQQKPGKAPKLLIYWASTLASGVPSRFSGSGSGTDFTLTISSLQPEDFATYYCQAVVYGNSADSRYTFGGGTKVEIK
notes: V-regions only; also called 11041gL3gH1
fold increase in binding affinity against 11041gL1gH1 (Human IL22 [4]): 15 fold
Kd (Human IL22 [2]): 0.0419 nM

B5: 11041gL7 C91S gH8 D54E (Fab, V domains shown)
VH: EVQLVESGGGLVQPGGSLRLSCAVSGFSLSSYAMIWVRQAPGKGLEWIGIIDIEGSTYYASWAKGRFTISRDSSKNTLYLQMNSLRAEDTAVYYCARDRFVGVDIFDPWGQGTLVTVSS
VL: AIQLTQSPSSLSASVGDRVTITCQASEDIYTNLAWYQQKPGKAPKLLIYWASTLASGVPSRFSGSGSGTDFTLTISSLQPEDFATYYCQASVYGNSADSRYTFGGGTKVEIK
notes: V-regions only; also called 11041gL12gH15
Kd (Human IL22 [2]): 0.115 nM

B6: 11041gL7 C91S gH11 D54E (Fab, V domains shown)
VH: EVQLVESGGGLVQPGGSLRLSCAVSGFSLSSYAMIWVRQAPGKGLEWVGIIDIEGSTYYASWAKGRFTISRDNSKNTLYLQMNSLRAEDTAVYYCARDRFVGVDIFDPWGQGTLVTVSS
VL: AIQLTQSPSSLSASVGDRVTITCQASEDIYTNLAWYQQKPGKAPKLLIYWASTLASGVPSRFSGSGSGTDFTLTISSLQPEDFATYYCQASVYGNSADSRYTFGGGTKVEIK
notes: V-regions only; also called 11041gL12gH17
Kd (Human IL22 [2]): 0.0666 nM

B7: 11041gL7 C91S gH12 D54E (Fab, V domains shown)
VH: EVQLVESGGGLVQPGGSLRLSCAVSGFSLSSYAMIWVRQAPGKGLEWISIIDIEGSTYYASWAKGRFTISRDNSKNTLYLQMNSLRAEDTAVYYCARDRFVGVDIFDPWGQGTLVTVSS
VL: AIQLTQSPSSLSASVGDRVTITCQASEDIYTNLAWYQQKPGKAPKLLIYWASTLASGVPSRFSGSGSGTDFTLTISSLQPEDFATYYCQASVYGNSADSRYTFGGGTKVEIK
notes: V-regions only; also called 11041gL12gH18
Kd (Human IL22 [2]): 0.0739 nM

B8: 11041gL7gH1 (Fab, V domains shown)
VH: EVQLVESGGGLVQPGGSLRLSCAVSGFSLSSYAMIWVRQAPGKGLEWIGIIDIDGSTYYASWAKGRFTISRDSSKNTVYLQMNSLRAEDTAVYYCARDRFVGVDIFDPWGQGTLVTVSS
VL: AIQLTQSPSSLSASVGDRVTITCQASEDIYTNLAWYQQKPGKAPKLLIYWASTLASGVPSRFSGSGSGTDFTLTISSLQPEDFATYYCQACVYGNSADSRYTFGGGTKVEIK
notes: V-regions only
Kd (Human IL22 [2]): 0.446 nM

B9: 11041gL6 C91S gH5 D54E (Fab, V domains shown)
VH: EVQLVESGGGLVQPGGSLRLSCAVSGFSLSSYAMIWVRQAPGKGLEWIGIIDIEGSTYYASWAKGRFTISRDNSKNTVYLQMNSLRAEDTAVYYCARDRFVGVDIFDPWGQGTLVTVSS
VL: AVQLTQSPSSLSASVGDRVTITCQASEDIYTNLAWYQQKPGKAPKLLIYWASTLASGVPSRFSGSGSGTDFTLTISSLQPEDFATYYCQASVYGNSADSRYTFGGGTKVEIK
notes: also called 11041gL11gH14
Kd (Human IL22 [2]): 0.0161 nM

B10: 11041gL1 C91S S96A gH5 D54E (Fab, V domains shown)
VH: EVQLVESGGGLVQPGGSLRLSCAVSGFSLSSYAMIWVRQAPGKGLEWIGIIDIEGSTYYASWAKGRFTISRDNSKNTVYLQMNSLRAEDTAVYYCARDRFVGVDIFDPWGQGTLVTVSS
VL: AVVLTQSPSSLSASVGDRVTITCQASEDIYTNLAWYQQKPGKAPKLLIYWASTLASGVPSRFSGSGSGTDFTLTISSLQPEDFATYYCQASVYGNAADSRYTFGGGTKVEIK
notes: heavy chain is the gH5 D54E (gH14) Fab heavy chain; also called 11041gL10gH14
Kd (Human IL22 [2]): 0.0233 nM

B11: 11041gL7 C91S S96A gH5 D54E (Fab, V domains shown)
VH: EVQLVESGGGLVQPGGSLRLSCAVSGFSLSSYAMIWVRQAPGKGLEWIGIIDIEGSTYYASWAKGRFTISRDNSKNTVYLQMNSLRAEDTAVYYCARDRFVGVDIFDPWGQGTLVTVSS
VL: AIQLTQSPSSLSASVGDRVTITCQASEDIYTNLAWYQQKPGKAPKLLIYWASTLASGVPSRFSGSGSGTDFTLTISSLQPEDFATYYCQASVYGNAADSRYTFGGGTKVEIK
notes: also called 11041gL14gH14
Kd (Human IL22 [2]): 0.0266 nM

B12: 11041gL7 C91S gH5 D54E (Fab, V domains shown)
VH: EVQLVESGGGLVQPGGSLRLSCAVSGFSLSSYAMIWVRQAPGKGLEWIGIIDIEGSTYYASWAKGRFTISRDNSKNTVYLQMNSLRAEDTAVYYCARDRFVGVDIFDPWGQGTLVTVSS
VL: AIQLTQSPSSLSASVGDRVTITCQASEDIYTNLAWYQQKPGKAPKLLIYWASTLASGVPSRFSGSGSGTDFTLTISSLQPEDFATYYCQASVYGNSADSRYTFGGGTKVEIK
notes: also called 11041gL12gH14
Kd (Human IL22 [2]): 0.0293 nM

B13: 11041gL6 C91S S96A gH8 D54E (Fab, V domains shown)
VH: EVQLVESGGGLVQPGGSLRLSCAVSGFSLSSYAMIWVRQAPGKGLEWIGIIDIEGSTYYASWAKGRFTISRDSSKNTLYLQMNSLRAEDTAVYYCARDRFVGVDIFDPWGQGTLVTVSS
VL: AVQLTQSPSSLSASVGDRVTITCQASEDIYTNLAWYQQKPGKAPKLLIYWASTLASGVPSRFSGSGSGTDFTLTISSLQPEDFATYYCQASVYGNAADSRYTFGGGTKVEIKR
notes: also called 11041gL13gH15
Kd (Human IL22 [2]): 0.0849 nM

B14: 11041gL6 C91S S96A gH11 D54E (Fab, V domains shown)
VH: EVQLVESGGGLVQPGGSLRLSCAVSGFSLSSYAMIWVRQAPGKGLEWVGIIDIEGSTYYASWAKGRFTISRDNSKNTLYLQMNSLRAEDTAVYYCARDRFVGVDIFDPWGQGTLVTVSS
VL: AVQLTQSPSSLSASVGDRVTITCQASEDIYTNLAWYQQKPGKAPKLLIYWASTLASGVPSRFSGSGSGTDFTLTISSLQPEDFATYYCQASVYGNAADSRYTFGGGTKVEIKR
notes: also called 11041gL13gH17
Kd (Human IL22 [2]): 0.0524 nM

B15: 11041gL6 C91S S96A gH12 D54E (Fab, V domains shown)
VH: EVQLVESGGGLVQPGGSLRLSCAVSGFSLSSYAMIWVRQAPGKGLEWISIIDIEGSTYYASWAKGRFTISRDNSKNTLYLQMNSLRAEDTAVYYCARDRFVGVDIFDPWGQGTLVTVSS
VL: AVQLTQSPSSLSASVGDRVTITCQASEDIYTNLAWYQQKPGKAPKLLIYWASTLASGVPSRFSGSGSGTDFTLTISSLQPEDFATYYCQASVYGNAADSRYTFGGGTKVEIKR
notes: also called 11041gL13gH18
Kd (Human IL22 [2]): 0.0517 nM

B16: 11070gL1gH13 (Fab, V domains shown)
VH: EVQLQESGPGLVKPSQTLSLTCTVSGFSLTSYSVHWVRQHSGKGLEWMGRMWSDGDTSYNTAFTSRLTISRDTSKSQVSLKLSSVTAADTAVYYCARSLDFYYDTTLAFWGQGTTVTVSS
VL: DIVMTQSPSSVSASVGDRVTITCKASKTISKYLAWYQQKPGKANKLLIYSGSTLQSGTPSRFSGSGSSTDFTLTISSLQPEDFATYYCQQHNEYPLTFGQGTKLEIK
notes: V-regions only; also called 11070gL1gH1 S61T
Kd (Human IL22 [5]): 0.0317 nM

B17: 11070gL1gH1 (Fab, V domains shown)
VH: EVQLQESGPGLVKPSQTLSLTCTVSGFSLTSYSVHWVRQHSGKGLEWMGRMWSDGDTSYNSAFTSRLTISRDTSKSQVSLKLSSVTAADTAVYYCARSLDFYYDTTLAFWGQGTTVTVSS
VL: DIVMTQSPSSVSASVGDRVTITCKASKTISKYLAWYQQKPGKANKLLIYSGSTLQSGTPSRFSGSGSSTDFTLTISSLQPEDFATYYCQQHNEYPLTFGQGTKLEIK
notes: V-regions only
Kd (Human IL22 [5]): 0.0368 nM

B18: 11070gL7gH16 Fab (Fab, V domains shown)
VH: EVQLQESGPGLVKPSQTLSLTCTVSGFSLTSYSVHWVRQHPGKGLEWIGRMWSDGDTSYNTAFTSRLTISRDTSKNQVSLKLSSVTAADTAVYYCARSLDFYYDTTLAFWGQGTTVTVSS
VL: DIQMTQSPSSVSASVGDRVTITCKASKTISKYLAWYQQKPGKANKLLIYSGSTLQSGVPSRFSGSGSGTDFTLTISSLQPEDFATYYCQQHNEYPLTFGQGTKLEIKR
notes: also called VR11070
Kd (Human IL22 [5]): 0.0257 nM
